Reference: article doi:10.64898/2025.12.15.694324, “Dimerization of human PARP15 is required for NAD^+ binding and automodification” (bioRxiv, 2025)

Target: the molecule itself
Assay: SEC-MALS; 50 µg of each sample, Superdex 200 increase 10/300, 30 mM HEPES pH 7.5, 300 mM NaCl, 5 % glycerol, 0.5 mM TCEP

B1: PARP15^FL WT, full-length long isoform 1 of human PARP15 (enzyme, UniProt Q460N3 1-678, looked up)
chain: MAAPGPLPAAALSPGAPTPRELMHGVAGVTSRAGRDREAGSVLPAGNRGARKASRRSSSRSMSRDNKFSKKDCLSIRNVVASIQTKEGLNLKLISGDVLYIWADVIVNSVPMNLQLGGGPLSRAFLQKAGPMLQKELDDRRRETEEKVGNIFMTSGCNLDCKAVLHAVAPYWNNGAETSWQIMANIIKKCLTTVEVLSFSSITFPMIGTGSLQFPKAVFAKLILSEVFEYSSSTRPITSPLQEVHFLVYTNDDEGCQAFLDEFTNWSRINPNKARIPMAGDTQGVVGTVSKPCFTAYEMKIGAITFQVATGDIATEQVDVIVNSTARTFNRKSGVSRAILEGAGQAVESECAVLAAQPHRDFIITPGGCLKCKIIIHVPGGKDVRKTVTSVLEECEQRKYTSVSLPAIGTGNAGKNPITVADNIIDAIVDFSSQHSTPSLKTVKVVIFQPELLNIFYDSMKKRDLSASLNFQSTFSMTTCNLPEHWTDMNHQLFCMVQLEPGQSEYNTIKDKFTRTCSSYAIEKIERIQNAFLWQSYQVKKRQMDIKNDHKNNERLLFHGTDADSVPYVNQHGFNRSCAGKNAVSYGKGTYFAVDASYSAKDTYSKPDSNGRKHMYVVRVLTGVFTKGRAGLVTPPPKNPHNPTDLFDSVTNNTRSPKLFVVFFDNQAYPEYLITFTA
modifications: weakly MARylated from expression in Sf21 insect cells
notes: PARP15, human, full-length canonical isoform 1 (the longer isoform, both macrodomains present); Cloned in pFastBac-His-MBP (#30116); tags cleaved with TEV protease; source: Sf21 insect cells (baculovirus), purified (Ni-NTA, amylose resin, TEV cleavage, SEC)
  stoichiometry N: ~2
